Data reported in paper PMC9943647, “Structures of pMV158 replication initiator RepB with and without DNA reveal a flexible dual-function protein” (Nucleic Acids Research, 2023).

Columns and labels:
[1] = target: T1, RepB OBD (origin binding domain), wt (Streptococcus plasmid pMV158, UniProt P13921 1-131); assay: EMSA; per DDR site, independent binding, complexes C1-C3; Kd ~0.8 uM; EMSA: 20 mM Tris-HCl pH 8.0, 5 mM DTT, 300 mM NaCl, 20 nM DNA, 20 min 25 C; footprinting same buffer; SPR: 10 mM HEPES pH 7.4, 150 mM NaCl, 3 mM EDTA, 0.005% P20; settings: protein: recombinant; tags: none; label: 5'-Cy5 (top) for EMSA; 32P at both 5' ends for footprinting; blunt
T1 sequence: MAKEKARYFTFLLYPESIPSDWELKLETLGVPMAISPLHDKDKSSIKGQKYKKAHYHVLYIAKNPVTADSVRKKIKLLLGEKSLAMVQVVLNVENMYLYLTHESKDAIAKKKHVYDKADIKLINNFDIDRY

[2] = target: T1, RepB OBD (origin binding domain), wt; assay: EMSA; EMSA: 20 mM Tris-HCl pH 8.0, 5 mM DTT, 300 mM NaCl, 20 nM DNA, 20 min 25 C; footprinting same buffer; SPR: 10 mM HEPES pH 7.4, 150 mM NaCl, 3 mM EDTA, 0.005% P20; settings: protein: recombinant; tags: none; label: 5'-Cy5 (top); blunt
[3] = target: the molecule itself; assay: crystal structure; full-length RepB without DNA; hanging drop, 100 mM Na/K phosphate pH 6.2, 200 mM NaCl, 10% PEG 8000; space group P21, 2.77 A
[4] = target: OBD E4A (Streptococcus plasmid pMV158, UniProt P13921 1-131, E4A); assay: EMSA; EMSA: 20 mM Tris-HCl pH 8.0, 5 mM DTT, 300 mM NaCl, 20 nM DNA, 20 min 25 C; footprinting same buffer; SPR: 10 mM HEPES pH 7.4, 150 mM NaCl, 3 mM EDTA, 0.005% P20; settings: protein: recombinant; label: 5'-Cy5 (top); blunt
[5] = target: OBD K76A (Streptococcus plasmid pMV158, UniProt P13921 1-131, K76A); assay: as above; settings: protein: recombinant; label: 5'-Cy5 (top); blunt
[6] = target: OBD quadruple mutant (Streptococcus plasmid pMV158, UniProt P13921 1-131, R72A;K73A;K74A;K76A); assay: as above; settings: protein: recombinant; label: 5'-Cy5 (top); blunt
[7] = target: OBD R72A (Streptococcus plasmid pMV158, UniProt P13921 1-131, R72A); assay: as above; settings: protein: recombinant; label: 5'-Cy5 (top); blunt
[8] = target: OBD K5A (Streptococcus plasmid pMV158, UniProt P13921 1-131, K5A); assay: as above; settings: protein: recombinant; label: 5'-Cy5 (top); blunt
[9] = target: OBD triple mutant (Streptococcus plasmid pMV158, UniProt P13921 1-131, K3A;E4A;K5A); assay: as above; settings: protein: recombinant; label: 5'-Cy5 (top); blunt
[10] = target: T1, RepB OBD (origin binding domain), wt; assay: SPR; HBS-EP pH 7.4, 150 mM NaCl; specific DNA is 1DDR in text, DDRC in Fig 3; EMSA: 20 mM Tris-HCl pH 8.0, 5 mM DTT, 300 mM NaCl, 20 nM DNA, 20 min 25 C; footprinting same buffer; SPR: 10 mM HEPES pH 7.4, 150 mM NaCl, 3 mM EDTA, 0.005% P20; settings: protein: recombinant; tags: none; label: 5'-Cy5 (top) for EMSA; 5'-biotin for SPR; blunt
[11] = target: T1, RepB OBD (origin binding domain), wt; assay: EMSA; complex half-life <10 s; EMSA: 20 mM Tris-HCl pH 8.0, 5 mM DTT, 300 mM NaCl, 20 nM DNA, 20 min 25 C; footprinting same buffer; SPR: 10 mM HEPES pH 7.4, 150 mM NaCl, 3 mM EDTA, 0.005% P20; settings: protein: recombinant; tags: none; label: 5'-Cy5 (top) for EMSA; 5'-biotin for SPR; blunt
[12] = target: T1, RepB OBD (origin binding domain), wt; assay: SPR; HBS-EP pH 7.4, 150 mM NaCl; Results text names 1DDR, but Methods, Table S1 and Fig 3 legend name DDRC; EMSA: 20 mM Tris-HCl pH 8.0, 5 mM DTT, 300 mM NaCl, 20 nM DNA, 20 min 25 C; footprinting same buffer; SPR: 10 mM HEPES pH 7.4, 150 mM NaCl, 3 mM EDTA, 0.005% P20; settings: protein: recombinant; tags: none; label: 5'-Cy5 (top) for EMSA; 5'-biotin for SPR; blunt

B1: 3DDR (dsDNA)
DNA 1: AATCTCGGCGACTTTTCGGCGACTTTTCGGCGACTTTTTAGA
DNA 2: TCTAAAAAGTCGCCGAAAAGTCGCCGAAAAGTCGCCGAGATT
Ka [1]: 1.2 ± 0.4 µM⁻¹

B2: DDRL (dsDNA)
DNA 1: AATCTCGGCGACTTTTCGG
DNA 2: CCGAAAAGTCGCCGAGATT
Kd [2]: ~1000 nM

B3: RepB, replication initiation protein of plasmid pMV158 (full-length hexamer) (natural protein, streptococcal plasmid pMV158, UniProt P13921 1-210, looked up)
chain: MAKEKARYFTFLLYPESIPSDWELKLETLGVPMAISPLHDKDKSSIKGQKYKKAHYHVLYIAKNPVTADSVRKKIKLLLGEKSLAMVQVVLNVENMYLYLTHESKDAIAKKKHVYDKADIKLINNFDIDRYVTLDVEEKTELFNVVVSLIRAYTLQNIFDLYDFIDENGETYGLTINLVNEVIAGKTGFMKLLFDGAYQRSKRGTKNEER
notes: RepB, replication initiator (HUH endonuclease) of the streptococcal plasmid pMV158; Crystallised without DNA; a phosphate sits in each active site instead of Mn2+; also called RepB6; full-length RepB
stoichiometry N [3]: 6

B4: DDRR (dsDNA)
DNA 1: CTTTTCGGCGACTTTTTAG
DNA 2: CTAAAAAGTCGCCGAAAAG
Kd [2]: ~1000 nM

B5: 1DDR (dsDNA)
DNA 1: AATCTCGGCGACTTTTTAGA
DNA 2: TCTAAAAAGTCGCCGAGATT
Kd [4]: 600 ± 100 nM
Kd [5]: 5500 ± 700 nM
binding result [6]: no binding
Kd [7]: 1700 ± 200 nM
Kd [8]: 1800 ± 200 nM
Kd [2]: 1100 ± 100 nM
Kd [9]: 1100 ± 100 nM

B6: NS (dsDNA)
DNA 1: CGGGTCGGTAATTGGGTTT
DNA 2: AAACCCAATTACCGACCCG
binding signal [10]: ~15 fold lower affinity than specific DNA

B7: DDRC (dsDNA)
DNA 1: CTTTTCGGCGACTTTTCGG
DNA 2: CCGAAAAGTCGCCGAAAAG
Kd [11]: ~1000 nM
Kd [12]: 220 ± 10 nM
